Measurements taken from the supplement of paper PMC9732359.
± gives the uncertainty stated by the source.

Experiment: protein stability index of a GFP-peptide fusion (yeast GPS) (PSI 1-4); higher = more stable; sorted into four equal gates, so the index is relative within each strain
Method in brief: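 Each library plasmid carries Cherry plus GFP with a tiled 17-residue yeast protein peptide fused downstream, and the pooled library was carried in yeast. Mid-log cultures in leucine-free medium were sorted into four equal gates by GFP/Cherry ratio. Reads from Illumina sequencing of PCR-amplified plasmids from each gate were assigned to strains by barcodes. Per peptide, the protein stability index was computed as the summed products of gate read frequency and gate number.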

Row | Sequence | protein stability index (doa10∆) | protein stability index (pdr5∆) | protein stability index (san1∆) | protein stability index (ubr1∆)
1 | DRSLADDYDYVMYGTAY [RPB8] | 2.56 ± 0.059 | 2.98 ± 0.064 | 3.02 ± 0.063 | 2.73 ± 0.074
2 | AEASGEAADEADEADEE [RPS9A] | 3.35 ± 0.23 | 3.03 ± 0.28 | 3.01 ± 0.15 | 3.45 ± 0.12
3 | FRETTHSKRELDSGDDQ [BRR2] | 3.31 ± 0.12 | 3.02 ± 0.12 | 2.51 ± 0.088 | 2.78 ± 0.16
4 | SSSAQQTKSNGTAGGNT [YJL041W/NSP1] | 3.32 ± 0.12 | 3.46 ± 0.16 | 3.36 ± 0.078 | 3.28 ± 0.085
5 | RLFNNVKIHSQESLLSR [SRP72] | 2.61 ± 0.076 | 2 ± 0.06 | 2.44 ± 0.085 | 2.18 ± 0.044
6 | DFIKFDAGKLVYVTGGR [RPS4A] | 2.22 ± 0.13 | 2.1 ± 0.086 | 2.41 ± 0.1 | 2.36 ± 0.094
7 | SLIEDFVDGIANSKKST [SRB7] | 3.29 ± 0.14 | 3.35 ± 0.092 | 3.03 ± 0.062 | 3.04 ± 0.062
8 | MSKVMKPSNGKGSRKSS [SNF12] | 2.92 ± 0.091 | 3.27 ± 0.11 | 3.02 ± 0.11 | 3.232 ± 0.029
9 | HEFTLSFTYELKQHNQN [BRR2] | 1.98 ± 0.074 | 1.97 ± 0.054 | 2.4 ± 0.08 | 2.43 ± 0.073
10 | RIGRIEDVTPVPSDSTR [RPS14A] | 2.85 ± 0.082 | 3.15 ± 0.065 | 3.26 ± 0.053 | 3.16 ± 0.052
11 | FHSAVENLVQGNGNVSE [YCG1] | 3.21 ± 0.092 | 2.97 ± 0.067 | 3.23 ± 0.069 | 3.02 ± 0.12
12 | NQEDLFELVHHFFQIDG [YML103C/NUP188] | 2.97 ± 0.079 | 3.04 ± 0.065 | 2.85 ± 0.081 | 2.68 ± 0.051
13 | KTSEKSENHTESDAPPK [YOR098C/NUP1] | 2.52 ± 0.13 | 2.75 ± 0.13 | 2.53 ± 0.15 | 2.28 ± 0.21
14 | SSYMGKHWTEKSLHEMN [PRP28] | 3.23 ± 0.14 | 3.14 ± 0.23 | 3.07 ± 0.19 | 
15 | VRIMKAKRNLPHTTLVN [CDC53] | 1.9 ± 0.093 | 2.23 ± 0.07 | 1.53 ± 0.16 | 1.77 ± 0.072
16 | EFFNTLRKSRETVKLPR [RRI2] |  | 3.55 ± 0.18 | 3.02 ± 0.15 | 
17 | VFIRHRTPHEIQEANSV [RIP1] |  | 2.24 ± 0.28 |  | 1.69 ± 0.17
18 | VTLYWNNAKLLTFMTCN [ESC2] | 1.89 ± 0.041 | 2.09 ± 0.041 | 2.34 ± 0.045 | 2.57 ± 0.029
19 | LKIFLYLESLFAKQVDV [IRR1] | 2.51 ± 0.093 | 2.19 ± 0.073 | 2.33 ± 0.1 | 2.53 ± 0.049
20 | QQTAQTQLEQQRQLLVQ [SNF5] | 3.12 ± 0.12 | 3.15 ± 0.14 |  | 2.49 ± 0.072
21 | LEVVQYIEDGRNPDIYT [NUT2] | 3.14 ± 0.059 | 3.25 ± 0.049 | 3.15 ± 0.042 | 3.27 ± 0.039
22 | KLLLLNTSAIQETASPL [YIL149C/MLP2] | 2.33 ± 0.13 | 2.42 ± 0.21 |  | 2.56 ± 0.088
23 | LVRNGPNEHPGAKYVIR [RPO21] | 2.91 ± 0.095 | 2.95 ± 0.1 | 2.76 ± 0.14 | 2.8 ± 0.084
24 | TPSSDQNPLPTRFEVEL [SOH1] | 3.35 ± 0.088 | 3.1 ± 0.061 | 2.65 ± 0.075 | 3.19 ± 0.049
25 | RRANFYKENEAMLRENI [SNF12] | 3.29 ± 0.094 | 3.2 ± 0.14 | 3.33 ± 0.074 | 3.39 ± 0.11

Row | Sequence | protein stability index (doa10∆) | protein stability index (pdr5∆) | protein stability index (san1∆) | protein stability index (ubr1∆)
26 | LGYNFDGSAIEDDDIRS [SNF5] | 3.39 ± 0.086 | 3.26 ± 0.072 | 3.35 ± 0.068 | 3.35 ± 0.05
27 | LLEISCKQWEISNMLKK [CSI1] | 1.5 ± 0.052 | 1.58 ± 0.048 | 1.75 ± 0.077 | 1.5 ± 0.046
28 | RKIGISIDDHPYNLNLF [RPC31] | 1.75 ± 0.043 | 2.04 ± 0.05 | 1.71 ± 0.098 | 1.9 ± 0.044
29 | AALANANNNINSASSAP [SWI1] | 2.55 ± 0.088 | 1.91 ± 0.068 | 2.88 ± 0.13 | 2.55 ± 0.12
30 | DFIQLKQTAAYRTPGSS [SSN2] | 2.88 ± 0.064 | 2.98 ± 0.071 | 2.79 ± 0.083 | 2.92 ± 0.044
31 | KIVVLSRTGPVFDLCWN [RRP43] | 2.07 ± 0.057 | 2.2 ± 0.048 | 2.91 ± 0.066 | 2.39 ± 0.035
32 | KARAKKTKKEKGPNEEE [RPN2] | 3.45 ± 0.22 | 3.37 ± 0.15 | 3.43 ± 0.064 | 3.15 ± 0.18
33 | SDAAKEPPGSNTSFSFT [YOR098C/NUP1] | 1.58 ± 0.046 | 1.96 ± 0.048 | 2.33 ± 0.053 | 1.91 ± 0.045
34 | KFFIMIVKGNIIDEIKC [POP4] | 1.32 ± 0.055 | 1.47 ± 0.055 | 1.49 ± 0.094 | 1.66 ± 0.056
35 | KAEKTLKSTKHSISEAE [SMC4] | 2.57 ± 0.068 | 1.99 ± 0.058 | 1.92 ± 0.063 | 2.5 ± 0.044
36 | IVTEQPSAEIREAYIEN [SWP82] | 2.47 ± 0.062 | 2.88 ± 0.062 | 2.74 ± 0.073 | 2.2 ± 0.065
37 | ARILGTRALQISMNAPV [RPO26] |  | 1.45 ± 0.24 |  | 1.39 ± 0.13
38 | SSKLQLTKKYSFKIFVD [RRP42] | 2.19 ± 0.09 | 1.76 ± 0.062 | 1.76 ± 0.086 | 2.06 ± 0.044
39 | AIATTVIAHLTVEALDF [RET1] | 2.54 ± 0.12 | 2.32 ± 0.083 | 2.71 ± 0.076 | 2.37 ± 0.053
40 | INKLMEKDFQVNKEIKP [SIR4] | 3.4 ± 0.083 | 3.31 ± 0.069 | 3.16 ± 0.069 | 3.31 ± 0.057
41 | MDFANLWVFQAFTCFCI [SRB8] | 1.55 ± 0.054 | 1.2 ± 0.043 | 1.16 ± 0.08 | 1.21 ± 0.042
42 | INSGTNSANGSSLNGTN [SSN3] | 2.55 ± 0.056 | 2.75 ± 0.055 | 2.82 ± 0.05 | 2.7 ± 0.041
43 | LVALLSRDLWCFSINDD [SSN2] | 2.1 ± 0.076 | 1.71 ± 0.08 | 2.5 ± 0.098 | 2.69 ± 0.098
44 | LEVGKNNFCALYNLSNP [RPN14] | 1.58 ± 0.092 | 1.2 ± 0.14 | 1.43 ± 0.15 | 1.13 ± 0.046
45 | IIQGRKNFDMLNSMEKD [PCI8] | 2.63 ± 0.083 | 2.77 ± 0.074 | 2.95 ± 0.046 | 2.71 ± 0.047
46 | VQPPLDKFPYKKLELPK [SWP82] | 2.79 ± 0.074 | 2.11 ± 0.055 | 2.73 ± 0.061 | 2.93 ± 0.055
47 | NSDLEGKIRGVEDDLVT [SMC2] | 3.14 ± 0.094 | 3.33 ± 0.064 | 3.15 ± 0.067 | 3.24 ± 0.051
48 | KELFEKTFDYVSDHLDA [SMC1] | 3.35 ± 0.085 | 2.87 ± 0.068 | 2.9 ± 0.077 | 3 ± 0.049
49 | FWSLHSSTYYNLDYLFE [NUT1] | 2.44 ± 0.053 | 2.05 ± 0.037 | 2 ± 0.063 | 1.95 ± 0.029
